# In article PMC9482650, “Quantitative fragmentomics allow affinity mapping of interactomes” (Nature Communications, 2022):
# B1: ATP5IF1 (protein, UniProt Q9UII2 26-106, looked up)
# ATPase inhibitor, …: GSDQSENVDRGAGSIREAGGAFGKREQAEEERYFRAQSREQLAALKKHHEEEIVHHKKEIERLQKEIERHKQKIKMLKHDD
# B2: CRTAP (protein, UniProt O75718 27-401, looked up)
# Cartilage-associated protein: QYERYSFRSFPRDELMPLESAYRHALDKYSGEHWAESVGYLEISLRLHRLLRDSEAFCHRNCSAAPQPEPAAGLASYPELRLFGGLLRRAHCLKRCKQGLPAFRQSQPSREVLADFQRREPYKFLQFAYFKANNLPKAIAAAHTFLLKHPDDEMMKRNMAYYKSLPGAEDYIKDLETKSYESLFIRAVRAYNGENWRTSITDMELALPDFFKAFYECLAACEGSREIKDFKDFYLSIADHYVEVLECKIQCEENLTPVIGGYPVEKFVATMYHYLQFAYYKLNDLKNAAPCAVSYLLFDQNDKVMQQNLVYYQYHRDTWGLSDEHFQPRPEAVQFFNVTTLQKELYDFAKENIMDDDEGEVVEYVDDLLELEETS
# B3: FERMT2 (protein, UniProt Q96AC1 1-680, looked up)
# Fermitin family homolog 2: MALDGIRMPDGCYADGTWELSVHVTDLNRDVTLRVTGEVHIGGVMLKLVEKLDVKKDWSDHALWWEKKRTWLLKTHWTLDKYGIQADAKLQFTPQHKLLRLQLPNMKYVKVKVNFSDRVFKAVSDICKTFNIRHPEELSLLKKPRDPTKKKKKKLDDQSEDEALELEGPLITPGSGSIYSSPGLYSKTMTPTYDAHDGSPLSPTSAWFGDSALSEGNPGILAVSQPITSPEILAKMFKPQALLDKAKINQGWLDSSRSLMEQDVKENEALLLRFKYYSFFDLNPKYDAIRINQLYEQAKWAILLEEIECTEEEMMMFAALQYHINKLSIMTSENHLNNSDKEVDEVDAALSDLEITLEGGKTSTILGDITSIPELADYIKVFKPKKLTLKGYKQYWCTFKDTSISCYKSKEESSGTPAHQMNLRGCEVTPDVNISGQKFNIKLLIPVAEGMNEIWLRCDNEKQYAHWMAACRLASKGKTMADSSYNLEVQNILSFLKMQHLNPDPQLIPEQITTDITPECLVSPRYLKKYKNKQITARILEAHQNVAQMSLIEAKMRFIQAWQSLPEFGITHFIARFQGGKKEELIGIAYNRLIRMDASTGDAIKTWRFSNMKQWNVNWEIKMVTVEFADEVRLSFICTEVDCKVVHEFIGGYIFLSTRAKDQNESLDEEMFYKLTSGWV
# System: HEK293T cells
# Experiment: Label-free MS proteome of stable cell lines expressing HPV16 E6 or E6ΔPBM
# Assay type: cell-based, human
# Settings: protein level, E6 cell line vs control
# Experimental: HEK293T and HeLa cells were authenticated and found 100% identity to ATCC cat. CRL-3216 and ATCC cat. CCL-2, respectively. Jurkat and HaCat cell lines were not authenticated (original source: ECACC and Deutsches Krebsforschungszentrum DKFZ, respectively). HeLa cells were grown in DMEM (1 g/L glucose, Gibco) medium completed with 5% FCS and 40 μg/mL gentamicin, diluted every 3rd/4th day 1/10. HaCat cells were grown in DMEM (1 g/L glucose, Gibco) medium completed with 10% FCS and 40 μg/mL gentamicin, diluted every 3rd/4th day 1/4. Jurkat cells were grown in RPMI (Gibco) medium completed with 10% FCS and 40 μg/mL gentamicin, diluted every 3rd/4th day 1/12. All cells were kept at 37 °C and 5% CO2. For proteomics analyses cells were seeded on T-175 flasks. After they reached confluency, adherent cells were washed with PBS once and collected by scraping with ice-cold lysis buffer (Hepes-KOH pH 7.5 50 mM, NaCl 150 mM, Triton X-100 1%, complete EDTA-free protease inhibitor cocktail 1×, EDTA 2 mM, TCEP 5 mM, glycerol 10%). Jurkat cells were collected by 1000 g × centrifugation, washed once with PBS, then collected by 1000 g × 5 min centrifugation again and lysed in ice-cold lysis buffer. Lysates were sonicated 4 × 20 s with 1 s long pulses on ice, then incubated rotating at 4 °C for 30 min. Lysates were centrifuged at 12,000 rpm 4 °C for 20 min and supernatant was kept for further analysis. Concentration determination was carried out by standard Bradford method (Bio-Rad Protein Assay Dye Reagent #5000006) using BSA (MP BIomedicals #160069) as control on a Bio-Rad SmartSpec 3000 spectrophotometer instrument.
# The samples were precipitated with TCA 20% overnight at 4 °C and centrifuged at 14,000 rpm for 10 min at 4 °C. The protein pellets were washed twice with 1 mL cold acetone and air dried. The protein extracts were solubilized in urea 8 M, reduced with 5 mM TCEP for 30 min, and alkylated with 10 mM iodoacetamide for 30 min in the dark. Double digestion was performed at 37 °C with 500 ng endoproteinase Lys-C for 4 h, followed by fourfold dilution and an overnight digestion with 500 ng trypsin. Peptide mixtures were then desalted on C18 spin-column and dried on Speed-Vacuum.
# Samples were analyzed using an Ultimate 3000 nano-RSLC (Thermo Scientific, San Jose California) coupled in line with a LTQ-Orbitrap ELITE mass spectrometer via a nano-electrospray ionization source (Thermo Scientific, San Jose California). Peptide mixtures were injected in 0.1% TFA on a C18 Acclaim PepMap100 trap-column (75 µm ID × 2 cm, 3 µm, 100 Å, Thermo Fisher Scientific) for 3 min at 5 µL/min with 2% ACN, 0.1% FA in H2O and then separated on a C18 Accucore nano-column (75 µm ID × 50 cm, 2.6 µm, 150 Å, Thermo Fisher Scientific) at 220 nl/min and 38 °C with a 90 min linear gradient from 5% to 30% buffer B (A: 0.1% FA in H2O/B: 99% ACN, 0.1% FA in H2O), regeneration at 5% B. The mass spectrometer was operated in positive ionization mode, in data-dependent mode with survey scans from m/z 350–1500 acquired in the Orbitrap at a resolution of 120,000 at m/z 400. The 20 most intense peaks from survey scans were selected for further fragmentation in the Linear Ion Trap with an isolation window of 2.0 Da and were fragmented by CID with normalized collision energy of 35%. (TOP20CID method) Unassigned and single charged states were excluded from fragmentation. The Ion Target Value for the survey scans (in the Orbitrap) and the MS2 mode (in the Linear Ion Trap) were set to 1E6 and 5E3 respectively and the maximum injection time was set to 100 ms for both scan modes. Dynamic exclusion was set to 20 s after one repeat count with mass width at ±10 ppm.
# Proteins were identified by database searching using SequestHT (Thermo Fisher Scientific) with Proteome Discoverer 2.4 software (PD2.4, Thermo Fisher Scientific) on human FASTA database downloaded from SwissProt (reviewed, release 2020_11_27, 20304 entries, https://www.uniprot.org/). […]
Molecule,Difference log2 E6/Ctrl,Ratio E6/Ctrl
B1,4.465,22.0916
B2,1.355,2.558
B3,0.234,1.176

# Same assay, conditions: protein level, dPBM cell line vs E6 cell line
Molecule,Difference log2 dPBM/E6,Ratio dPBM/E6
B1,-4.258,0.05227
B2,-3.496,0.08864
B3,-3.123,0.1148

# Same assay, conditions: protein level, dPBM cell line vs control
Molecule,Difference log2 dPBM/Ctrl,Ratio dPBM/Ctrl
B1,0.2076,1.155
B2,-2.141,0.2267
B3,-2.889,0.135
